To fix the notation:
B1: CPEB3 Ribozyme (parent)
chain: UAACAGGGGGCCACAGCAGAAGCGUUCACGUCGCAGCCCCUGUCAGAUUCUGGUGAAUCUGCGAAUUCUGCUGUAUAUCUC

These results are taken from the RNAGym collection of RNA variant scans (doi:10.1093/nar/gkz1192).

This data set covers variants of B1. The experiment in a line: self-cleavage, relative activity (ratio to wild type); higher = more cleavage; in vitro, sequencing. The gist of the method:
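After error-prone PCR and barcoding, CPEB3 ribozyme mutant libraries were transcribed with T7 RNA polymerase at 37°C for 5 hours, then given 15 min with DNase I before an EDTA stop, and they cleaved during both steps. Reverse transcription with template switching preceded Illumina sequencing. Relative activity divides a variant's cleaved/total read fraction by the unmutated ribozyme's. At least 5 reads were required per variant, and three batches were averaged.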
For A2G U48A, the self-cleavage was 0.09.

For the variant A2G U48C, the self-cleavage came to 0.28. On to A2G G61A, for which the self-cleavage was found to be 0.31. Under A2U A15U stands 0.41.

As for A2U A15G, the self-cleavage was determined as 0.8. As to A2C U26C, the self-cleavage amounted to 0.55. Under U1G C27A stands 0.43; under A2G A18G, 0.48; under A2G A18C, 0.43.

On to A2G A18U, for which the self-cleavage turned out to be 0.38. For A3C A18G the value was 0.64. Take A3C A18U: the self-cleavage stood at 0.73. Under A2G G19U stands 0.89; under A2G G19A, 0.58; under A2U U48C, 0.62. On to A2G G6U, for which the self-cleavage was found to be 0.68. For A2G G6A the value was 0.59; for A2U A57G, 0.83. Take A2C U66C: the self-cleavage came out at 0.4. Under A3C C81G stands 1.19; under A2U C37A, 0.16. As for A2G U54A, the self-cleavage stood at 0.66. For A2G U54G the value was 0.51; for A2G U54C, 0.58. For A2U U80C the value was 1.09. Under A2U U80G stands 1.06; under A2U U80A, 1.14. With A3C, the self-cleavage was 1.16. Under A2C A35G stands 1.24.

For the variant A3C A20G, the self-cleavage worked out at 1.05. Under A2C C23U stands 0.25; under U1G A57C, 0.37; under A2U C12U, 1.18. Under A2U C12G stands 0.19; under A2U U66A, 0.52. Under A2U U66C stands 0.38; under A2G G24A, 0.3; under A2U U60A, 0.56. On to A2U U60C, for which the self-cleavage amounted to 0.47. For A2U G8U the value was 0.28; for A2U G8A, 0.27; for A2G C27U, 0.4. For the variant A2G C27A, the self-cleavage stood at 0.36.

With A2U A18C, the self-cleavage was 0.28. Consider A2U A18U, for which the self-cleavage was 0.41. As for A2U A18G, the self-cleavage amounted to 0.89.

For A2G C38U, the self-cleavage came to 0.68.

With A2C U80A, the self-cleavage amounted to 1.2. For A2G C29U the value was 0.24. Under A2G C29A stands 0.13; under A2U A13G, 0.84. Under A2U A13U stands 1.08. Consider A2C A13G, for which the self-cleavage was found to be 0.49. Take A2U G33U: the self-cleavage was found to be 0.32. Under U1G G8C stands 0.59. For A2G A65G the value was 0.29. Under A2G A65U stands 0.38.

Consider A2U U31C, for which the self-cleavage turned out to be 0.81.

Consider A2U U31A, for which the self-cleavage amounted to 0.48. For A2G U80A the value was 0.77; for A2G U80C, 0.69.

Take A2G U80G: the self-cleavage came out at 0.17. For U1G U25C the value was 0.13; for A2G U58C, 0.25; for U1G U69A, 0.65. Under A2U U72A stands 0.67; under A2U U72C, 1.11; under A2C U31C, 0.63. Under A2G C14U stands 0.49; under A2U A3G, 0.99. As to A2U A3U, the self-cleavage was 1.04.

Consider A3C C11U, for which the self-cleavage came out at 0.88. For A2G U67C the value was 0.26; for A2G U67A, 0.3; for A2U G70C, 0.31. Under U1G U41C stands 1.01. For U1G U41A, the self-cleavage turned out to be 0.3. Under A2G C34U stands 0.29; under A2G C34G, 0.1; under A2C A64U, 0.21. With A2C A64G, the self-cleavage worked out at 0.74. As for A3C A77U, the self-cleavage came out at 1.03. Take U1G G53C: the self-cleavage was 0.89. As for A2G G70A, the self-cleavage is 0.16. As for A2G A45U, the self-cleavage turned out to be 0.44. For A2G A45C the value was 0.5; for A2G A45G, 0.45; for A2C G8A, 0.1. Take A3C C37U: the self-cleavage amounted to 0.6. For A2C A5G the value was 0.86; for A2U U78C, 0.87. For A2U C39A the value was 0.42; for A3C C62U, 0.29. Under A2U U69A stands 0.52; under U1G U72A, 0.71. For U1G U72C, the self-cleavage was 1. Under A2G A35U stands 0.37. Under A2G A35G stands 1.21; under A2U G22A, 0.22. For A3C A47G the value was 1.12; for A2G C81U, 0.81; for A2U G42A, 0.43. A2U A64G: the self-cleavage turned out to be 0.83. A2U A64U: the self-cleavage turned out to be 0.28.

Take A3C A28G: the self-cleavage came to 1.09. Under A2U A47G stands 1.11; under A2C C39A, 0.49.

Take A2G U72A: the self-cleavage was 0.36. Under A2G U72G stands 0.42. For A2G U72C the value was 0.74. For A2C G52A the value was 1.02. On to A2G U69G, for which the self-cleavage came to 0.46. For A2G U69C the value was 0.32; for A2G U69A, 0.33; for A3C A75G, 1.14. Turning to A2G A28U, the self-cleavage turned out to be 0.52. In the case of A2G A28C, the self-cleavage was 0.38. For A2G A28G the value was 0.4; for A2G U76C, 0.73; for A2G U76A, 0.73.

Turning to A2C U48C, the self-cleavage was 0.71. For A2U A21U, the self-cleavage was 0.29. Under A2U A21G stands 0.56; under A2G G53A, 0.66; under A2G G53U, 0.72.

For A3C A64G, the self-cleavage amounted to 1.17. In the case of A2U U76C, the self-cleavage was 1.15. For A2U U76A the value was 1.14; for U1G U26C, 0.4. Regarding A2U A56G, the self-cleavage was determined as 0.88. For A2U A56U, the self-cleavage came out at 0.4. For A2U A56C the value was 0.73; for A3C G7U, 0.39; for A3C A5C, 1.23.

With A3C A5G, the self-cleavage stood at 0.62. Under A2U A28U stands 0.82; under A2U A28G, 0.65. Regarding A2U U26G, the self-cleavage is 0.5. For A2U U26C the value was 0.55; for A2U U26A, 0.87; for A2G U43C, 0.34. A2G U43A: the self-cleavage turned out to be 1.02. For A2G U49A the value was 0.42; for A2G U49C, 0.32. Under A2G C59G stands 0.24; under A2G C59A, 0.23.

Turning to A2U G6A, the self-cleavage worked out at 0.66. Under A3C A65U stands 0.95. Take A3C A65G: the self-cleavage worked out at 0.92. Under A2G C32U stands 0.3; under A2G C32A, 0.1.

With A2G A15G, the self-cleavage is 0.53. For A2G A15U the value was 0.41; for U1G C38A, 0.48. For U1G U80A the value was 1.08; for A2C U49C, 0.42; for A2U A77G, 1.04. Under A2C U67C stands 0.36; under A2C G61A, 0.48; under A2U U41C, 1.07. As for A2U U41A, the self-cleavage is 0.25. As to A2U U49A, the self-cleavage turned out to be 0.72. On to A2C A77G, for which the self-cleavage was determined as 1.01. For A2G U66G the value was 0.28; for A2G U66C, 0.2. For A2U G16A the value was 0.18; for U1G U78C, 0.82.
